# Source: article PMC9604365 (2022)
# T1: integrin αvβ5 (Homo sapiens, UniProt P06756)
# T1 chain 1: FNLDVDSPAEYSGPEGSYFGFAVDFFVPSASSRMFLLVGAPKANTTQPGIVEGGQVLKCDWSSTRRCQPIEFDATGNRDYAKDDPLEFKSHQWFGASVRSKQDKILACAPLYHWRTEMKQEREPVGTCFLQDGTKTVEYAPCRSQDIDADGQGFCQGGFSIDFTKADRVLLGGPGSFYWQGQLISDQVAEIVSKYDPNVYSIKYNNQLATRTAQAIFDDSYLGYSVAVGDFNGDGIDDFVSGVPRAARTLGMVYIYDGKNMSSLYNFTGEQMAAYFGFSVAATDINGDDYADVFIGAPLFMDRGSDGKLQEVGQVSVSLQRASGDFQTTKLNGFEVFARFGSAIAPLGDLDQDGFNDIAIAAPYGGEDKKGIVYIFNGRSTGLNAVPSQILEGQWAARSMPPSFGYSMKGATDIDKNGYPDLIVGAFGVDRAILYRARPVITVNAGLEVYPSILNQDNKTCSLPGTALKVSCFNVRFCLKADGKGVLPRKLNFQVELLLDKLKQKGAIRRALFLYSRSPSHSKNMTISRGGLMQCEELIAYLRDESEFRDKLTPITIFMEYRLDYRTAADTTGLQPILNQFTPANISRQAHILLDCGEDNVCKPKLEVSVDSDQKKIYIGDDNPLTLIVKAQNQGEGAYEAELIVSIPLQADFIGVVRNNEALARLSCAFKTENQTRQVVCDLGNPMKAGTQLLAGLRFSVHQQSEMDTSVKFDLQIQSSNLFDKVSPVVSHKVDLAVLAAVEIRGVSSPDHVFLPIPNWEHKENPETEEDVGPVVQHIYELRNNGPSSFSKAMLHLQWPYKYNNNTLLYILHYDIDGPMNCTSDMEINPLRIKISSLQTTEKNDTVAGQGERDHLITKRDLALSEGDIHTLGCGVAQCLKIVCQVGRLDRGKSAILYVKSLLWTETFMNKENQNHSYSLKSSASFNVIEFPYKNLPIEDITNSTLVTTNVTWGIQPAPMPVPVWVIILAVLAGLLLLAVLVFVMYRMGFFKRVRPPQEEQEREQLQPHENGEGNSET
# T1 chain 2: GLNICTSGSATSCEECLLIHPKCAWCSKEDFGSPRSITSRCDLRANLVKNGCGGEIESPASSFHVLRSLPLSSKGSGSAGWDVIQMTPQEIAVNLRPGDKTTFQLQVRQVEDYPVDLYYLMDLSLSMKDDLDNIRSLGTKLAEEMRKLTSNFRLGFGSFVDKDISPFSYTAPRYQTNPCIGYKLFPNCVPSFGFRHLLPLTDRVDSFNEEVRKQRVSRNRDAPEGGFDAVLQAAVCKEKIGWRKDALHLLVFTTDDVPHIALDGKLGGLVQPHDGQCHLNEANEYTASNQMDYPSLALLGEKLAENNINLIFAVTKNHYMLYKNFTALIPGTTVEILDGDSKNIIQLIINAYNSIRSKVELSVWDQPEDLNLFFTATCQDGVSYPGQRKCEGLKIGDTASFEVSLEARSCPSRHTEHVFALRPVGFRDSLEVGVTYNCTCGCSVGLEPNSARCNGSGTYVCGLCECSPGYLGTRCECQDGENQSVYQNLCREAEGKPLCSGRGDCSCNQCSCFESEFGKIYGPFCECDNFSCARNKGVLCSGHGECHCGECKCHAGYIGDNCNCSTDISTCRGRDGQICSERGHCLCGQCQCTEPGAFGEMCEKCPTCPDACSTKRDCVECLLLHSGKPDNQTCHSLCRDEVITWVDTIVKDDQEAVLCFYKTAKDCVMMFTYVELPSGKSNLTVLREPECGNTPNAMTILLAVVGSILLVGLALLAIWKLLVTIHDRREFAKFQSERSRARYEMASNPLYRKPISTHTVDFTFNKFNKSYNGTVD
# T2: integrin αvβ3 (Homo sapiens, UniProt P06756)
# T2 chain 1: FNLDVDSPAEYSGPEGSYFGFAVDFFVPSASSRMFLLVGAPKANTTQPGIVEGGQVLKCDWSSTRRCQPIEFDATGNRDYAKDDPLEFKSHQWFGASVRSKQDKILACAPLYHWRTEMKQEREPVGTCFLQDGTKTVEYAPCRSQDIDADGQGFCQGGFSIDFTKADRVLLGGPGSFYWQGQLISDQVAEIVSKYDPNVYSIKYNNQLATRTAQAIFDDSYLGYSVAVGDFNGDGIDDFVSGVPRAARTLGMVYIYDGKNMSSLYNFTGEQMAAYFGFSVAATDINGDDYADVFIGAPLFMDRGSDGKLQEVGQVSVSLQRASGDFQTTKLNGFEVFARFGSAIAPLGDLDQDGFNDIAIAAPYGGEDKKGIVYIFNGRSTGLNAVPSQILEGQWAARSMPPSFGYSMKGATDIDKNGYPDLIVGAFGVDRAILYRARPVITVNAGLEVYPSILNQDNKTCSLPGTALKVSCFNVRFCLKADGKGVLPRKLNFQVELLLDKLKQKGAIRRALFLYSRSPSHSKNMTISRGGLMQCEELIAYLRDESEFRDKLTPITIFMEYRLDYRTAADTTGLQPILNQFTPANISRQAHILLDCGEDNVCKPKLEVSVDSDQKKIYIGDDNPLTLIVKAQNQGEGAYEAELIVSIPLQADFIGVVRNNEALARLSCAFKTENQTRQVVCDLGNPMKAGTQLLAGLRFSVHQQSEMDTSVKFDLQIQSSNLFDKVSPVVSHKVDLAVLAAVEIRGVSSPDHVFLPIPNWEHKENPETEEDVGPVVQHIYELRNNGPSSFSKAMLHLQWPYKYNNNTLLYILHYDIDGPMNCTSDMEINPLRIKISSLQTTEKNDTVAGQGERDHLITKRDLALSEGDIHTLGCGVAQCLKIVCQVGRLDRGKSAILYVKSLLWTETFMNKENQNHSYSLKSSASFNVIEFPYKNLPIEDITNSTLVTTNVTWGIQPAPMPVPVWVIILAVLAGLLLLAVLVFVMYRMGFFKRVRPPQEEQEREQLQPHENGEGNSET
# T2 chain 2: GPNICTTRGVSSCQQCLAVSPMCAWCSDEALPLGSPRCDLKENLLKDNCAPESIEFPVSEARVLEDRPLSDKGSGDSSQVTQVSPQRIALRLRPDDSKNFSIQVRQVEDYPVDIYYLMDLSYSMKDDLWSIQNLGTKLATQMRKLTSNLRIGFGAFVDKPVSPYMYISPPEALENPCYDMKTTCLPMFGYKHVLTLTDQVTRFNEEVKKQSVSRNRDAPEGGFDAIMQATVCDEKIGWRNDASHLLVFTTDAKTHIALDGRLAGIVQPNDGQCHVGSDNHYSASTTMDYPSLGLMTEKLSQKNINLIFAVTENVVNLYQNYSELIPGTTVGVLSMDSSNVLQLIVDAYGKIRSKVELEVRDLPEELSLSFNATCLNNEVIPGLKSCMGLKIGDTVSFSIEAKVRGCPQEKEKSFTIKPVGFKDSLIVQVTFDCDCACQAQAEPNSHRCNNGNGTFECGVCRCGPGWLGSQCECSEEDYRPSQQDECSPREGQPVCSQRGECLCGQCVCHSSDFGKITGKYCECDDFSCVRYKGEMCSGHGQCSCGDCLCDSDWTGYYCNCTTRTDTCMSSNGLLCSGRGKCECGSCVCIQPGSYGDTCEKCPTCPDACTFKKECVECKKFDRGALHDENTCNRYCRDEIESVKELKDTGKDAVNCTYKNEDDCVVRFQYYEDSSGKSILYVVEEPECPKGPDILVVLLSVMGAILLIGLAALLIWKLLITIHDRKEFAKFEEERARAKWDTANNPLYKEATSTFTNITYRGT
# How the values were obtained:
# Assay in all cases: ELISA
# integrin αvβ5 = molecular target: T1, integrin αvβ5
# integrin αvβ3 = molecular target: T2, integrin αvβ3
# DR5 = DR5 (Homo sapiens, UniProt O14763)
Kd (integrin αvβ5) [nM],Kd (integrin αvβ3) [nM],Kd (DR5) [nM],Binder
96.5,1.89,1.66,DR5-B-iRGD 114-281 (protein) VRERGPQRVAAHITGTRGRSNTLSSPNSKNEKALGRKINSWESSRSGHSFLSNLHLRNGELVIHEKGFYYIYSQTNFKFREEIKENTKNDKQMVQYIYKYTSYPDPILLMKSARNSCWSKDAEYGLYSIYQGGIFELKENDRIFVSVTNERLLDMHHEASFFGAFLVG
,,1.46,DR5-B 114-281 (protein) VRERGPQRVAAHITGTRGRSNTLSSPNSKNEKALGRKINSWESSRSGHSFLSNLHLRNGELVIHEKGFYYIYSQTNFKFREEIKENTKNDKQMVQYIYKYTSYPDPILLMKSARNSCWSKDAEYGLYSIYQGGIFELKENDRIFVSVTNERLLDMHHEASFFGAFLVG
